According to patent publication US20020151473A1:

Target: IgG
Experiment: microcalorimetry and surface plasmon resonance (same value stated for both)

Kd: 100 µM
Substance: cyclized (locked helix) peptide FNM(5)QQRRFY(6)ALH
